Assay results taken from paper doi:10.1101/2023.04.17.537198, “Bitesize bundles F-actin and influences actin remodeling in syncytial Drosophila embryo development” (bioRxiv, 2025).

Assays:
[1] = target: T1, Rabbit skeletal muscle actin, polymerised (F-actin) (rabbit, UniProt P68135 1-377); assay: cell-based or functional assay
[2] = target: T1, Rabbit skeletal muscle actin, …; assay: co-sedimentation; high-speed pelleting: 0.5 uM BtszB-CT with 0, 0.1, 0.25, 0.5, 1, 2, 4 uM F-actin, 30 min at room temperature, 316,000 x g for 20 min at 25°C; supernatant and pellet on Coomassie gels, densitometry; BtszB-CT pelleted without F-actin subtracted; fit to a Hill equation (cooperative binding model); settings: both partners purified

- TIRF microscopy bundling assay: filament/bundle fluorescence intensity at FWHM, normalised to the mean of the control reaction (2 uM F-actin), with 1 uM BtszB-CT [1]: 3.4 fold of the control reaction (2 uM F-actin)
- Kd [2]: 0.45 µM
B1: C-terminal fragment of Bitesize isoform B (BtszB-CT) (domain or fragment)
chain: VKGQVEFAMQYNYKLSALEVHVVRCKDLAAVDAKRNRSDPYVKVYLLPDKSKAGKRKTKVKKHTLNPIFDETMRFHTPISSLESRTLWLTVWHSDMFGRNDFLGEVSVNLQGRLFDNPQSQWYLLQERSEPFDEVATYRGDIVVGLKYIPPENIKSSFFSRGSSITGSSSNLRKFGGSIKSVASKSERTSKGGQLHVLVKEAKHLSPIKANGTCDAFCKSYLLPDRTRSSKQKTPVVKRTLHPSWNYTFVYEDVSLEELSERALELTVWDHDRLASNEFVGGIRFSLGTGRSYGRQVEWMDATGKELSLWQNMLDRPNFWVEGSLVLRSSLDGIRANLP
